{"source": "paper PMC8230641", "assay_in_all_cases": "native gel or EMSA", "key": {"[1]": {"target": "BG505-NFL Env trimer (native flexible linker variant, C-terminal hexahistidine tag) (HIV-1 (BG505))"}, "[2]": {"target": "BG505-NtCC Env trimer (NFL variant with the N-terminal cysteine-containing coupling tag CAAC and (G4S)3 linker) (HIV-1 (BG505))"}, "[3]": {"target": "BG505-SOSIP Env trimer (BG505 SOSIP.664 sequence, mini-tPA signal sequence, C-terminal hexahistidine tag) (HIV-1 (BG505))"}, "[4]": {"target": "ConC-NFL Env trimer (stabilized HIV-1 clade C consensus, native flexible linker variant, with G473T) (HIV-1 clade C consensus)"}, "[5]": {"target": "ConC-NtCC Env trimer (stabilized HIV-1 clade C consensus NFL variant with the N-terminal coupling tag CAAC and (G4S)3 linker, with G473T) (HIV-1 clade C consensus)"}, "[6]": {"target": "ConC-SOSIP Env trimer (stabilized HIV-1 clade C consensus, ConCv5 KIKO, with G473T) (HIV-1 clade C consensus)"}}, "data": [{"substance": "BG505-NFL Env trimer (native flexible linker variant, C-terminal hexahistidine tag) (domain or fragment)", "values": [{"measurement": "stoichiometry N", "setting": "[1]", "result": 3}]}, {"substance": "BG505-NtCC Env trimer (NFL variant with the N-terminal cysteine-containing coupling tag CAAC and (G4S)3 linker) (domain or fragment)", "values": [{"measurement": "stoichiometry N", "setting": "[2]", "result": 3}]}, {"substance": "BG505-SOSIP Env trimer (BG505 SOSIP.664 sequence, mini-tPA signal sequence, C-terminal hexahistidine tag) (complex)", "values": [{"measurement": "stoichiometry N", "setting": "[3]", "result": 3}]}, {"substance": "ConC-NFL Env trimer (stabilized HIV-1 clade C consensus, native flexible linker variant, with G473T)", "values": [{"measurement": "stoichiometry N", "setting": "[4]", "result": 3}]}, {"substance": "ConC-NtCC Env trimer (stabilized HIV-1 clade C consensus NFL variant with the N-terminal coupling tag CAAC and (G4S)3 linker, with G473T)", "values": [{"measurement": "stoichiometry N", "setting": "[5]", "result": 3}]}, {"substance": "ConC-SOSIP Env trimer (stabilized HIV-1 clade C consensus, ConCv5 KIKO, with G473T) (complex)", "values": [{"measurement": "stoichiometry N", "setting": "[6]", "result": 3}]}]}
